Where “and” joins values, the source holds several entries; their conditions need not be identical. Equal entries are not always repeated.
T1: PPM1A (human, UniProt P35813 1-382)
T1 sequence (looked up): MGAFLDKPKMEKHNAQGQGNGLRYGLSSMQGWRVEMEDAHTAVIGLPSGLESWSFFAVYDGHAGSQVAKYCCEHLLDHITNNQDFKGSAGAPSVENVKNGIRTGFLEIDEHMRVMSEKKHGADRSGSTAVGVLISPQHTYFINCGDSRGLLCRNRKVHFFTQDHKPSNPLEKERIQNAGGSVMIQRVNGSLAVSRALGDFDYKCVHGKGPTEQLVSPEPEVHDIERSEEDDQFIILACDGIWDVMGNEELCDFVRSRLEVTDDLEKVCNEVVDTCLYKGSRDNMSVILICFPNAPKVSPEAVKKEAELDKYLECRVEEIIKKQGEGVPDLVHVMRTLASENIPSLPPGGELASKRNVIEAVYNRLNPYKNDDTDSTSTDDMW

B1: S2LMH2EEE Y366A-W368A (domain or fragment)
chain: not shown

How the values were obtained:
[1] = target: T1, PPM1A; test: NMR titration
[2] = target: S2LMH2EEE/S4LMH2 heterotrimer (human, UniProt Q15796 186-467; Q13485 273-552, SSMS to EEME); test: ITC
[3] = target: B1; test: ITC
[4] = target: the molecule itself; test: SEC

| binding result [1] | Kd [2] | dH [2] [kJ/mol] | Kd [3] | dH [3] | Binder | binding result [4] |
| --- | --- | --- | --- | --- | --- | --- |
| binds | 1.25 µM and 1.3 µM | -35.1 | 37.9 µM and 33.9 µM | -6.69 kJ/mol and -5.86 kJ/mol | MAN1 fragment from amino acids 755 to 911 (MAN1Luhm) (domain or fragment, human, UniProt Q9Y2U8 755-911, looked up) DKILVIPSKVWQGQAFHLDRRNSPPNSLTPCLKIRNMFDPVMEIGDQWHLAIQEAILEKCSDNDGIVHIAVDKNSREGCVYVKCLSPEYAGKAFKALHGSWFDGKLVTVKYLRLDRYHHRFPQALTSNTPLKPSNKHMNSMSHLRLRTGLTNSQGSS | – |
| – | – | – | – | – | B1 | binds |

From PMC3843637 (Science signaling, 2013)
